The values below come from article PMC4521999 (Nature, 2015).

Residue numbers refer to the chain shown, from its start. Names and notes keep the numbering of the source.

For one assay, the target named is rhodopsin (UniProt P02699). Conditions: cited from earlier work.
The target in assay [1] is T1, His8-MBP-rhodopsin E113Q/M257Y (in N2C/N282C) (human, UniProt P08100 1-348, N2^NtermC | N282^ECL3C | E113^3.28Q | M257^6.40Y). As to the kind of experiment: pull-down.
Assay [2] has as its target T1, His8-MBP-rhodopsin E113Q/M257Y (in …). Briefly: AlphaScreen or HTRF.
Assay [3] concerns the target WT rhodopsin (1–321)-TEV site-tTA (Tango construct) (human, UniProt P08100 1-321, N2^NtermC | N282^ECL3C). Briefly: Tango assay.
In assay [4] the target is E113Q/M257Y rhodopsin (1–321)-TEV site-tTA (Tango construct) (human, UniProt P08100 1-321, N2^NtermC | N282^ECL3C | E113^3.28Q | M257^6.40Y). As to the kind of experiment: Tango assay.

A word on the Kd: it is a measure of binding affinity in units of concentration. Turning to arrestin (from UniProt P10523), the dissociation constant (Kd) with rhodopsin is 50 nM.

B1: 35S-labelled 3A_arrestin (L374A/V375A/F376A, in vitro translated) (natural protein, mouse, UniProt P20443 1-403, looked up)
chain: MAACGKTNKSHVIFKKVSRDKSVTIYLGKRDYVDHVSQVEPVDGVVLVDPELVKGKKVYVTLTCAFRYGQEDIDVMGLTFRRDLYFSRVQVYPPVGAMSVLTQLQESLLKKLGDNTYPFLLTFPDYLPCSVMLQPAPQDVGKSCGVDFEVKAFASDITDPEEDKIPKKSSVRLLIRKVQHAPPEMGPQPSAEASWQFFMSDKPLNLSVSLSKEIYFHGEPIPVTVTVTNNTDKVVKKIKVSVEQIANVVLYSSDYYVKPVASEETQEKVQPNSTLTKTLVLVPLLANNRERRGIALDGKIKHEDTNLASSTIIKEGIDRTVMGILVSYHIKVKLTVSGFLGELTSSEVATEVPFRLMHPQPEDPAKESVQDENAAAEEFARQNLKDTGENTEGKKDEDAGQDE
modifications: 35S-methionine
For B1, the “fold of the binding of WT arrestin to WT rhodopsin, with all-trans-retinal” value in assay [1] is approximately 60 fold.

B2: untagged 3A_arrestin (residues 10–392) (domain or fragment, mouse, UniProt P20443 10-392, looked up)
chain: SHVIFKKVSRDKSVTIYLGKRDYVDHVSQVEPVDGVVLVDPELVKGKKVYVTLTCAFRYGQEDIDVMGLTFRRDLYFSRVQVYPPVGAMSVLTQLQESLLKKLGDNTYPFLLTFPDYLPCSVMLQPAPQDVGKSCGVDFEVKAFASDITDPEEDKIPKKSSVRLLIRKVQHAPPEMGPQPSAEASWQFFMSDKPLNLSVSLSKEIYFHGEPIPVTVTVTNNTDKVVKKIKVSVEQIANVVLYSSDYYVKPVASEETQEKVQPNSTLTKTLVLVPLLANNRERRGIALDGKIKHEDTNLASSTIIKEGIDRTVMGILVSYHIKVKLTVSGFLGELTSSEVATEVPFRLMHPQPEDPAKESVQDENAAAEEFARQNLKDTGENTE
What is called IC50 is the concentration that gives 50% inhibition. In the case of B2, in assay [2], half-maximal inhibition (IC50) required 15 nM. This lies in the double-digit nanomolar range.

B3: WT arrestin (10–392)-TEV protease (Tango construct) (domain or fragment, mouse, UniProt P20443 10-392, looked up)
chain: B2 chain with A365L, A366V, A367F
For B3, the “fold increase of binding with all-trans-retinal” value in assay [3] was approximately 3 fold.

B4: 3A_arrestin (10–392)-TEV protease (Tango construct) (domain or fragment, mouse, UniProt P20443 10-392, looked up)
chain: B2 chain
With B4, the “fold increase of binding signal with all-trans-retinal” value in assay [4] was approximately 5 fold.
In assay [2], TGGRVLEDLKSCGLF [GαCT peptide, a high affinity peptide variant of the C-terminus of G-transducin (Gt)] had a 50% inhibitory concentration (IC50) of 700 nM.
